Data taken from the RNAGym collection of RNA variant scans (doi:10.7554/elife.80360).

B1: Hairpin Ribozyme (parent)
chain: GUCCUCUUUCACGUGCGCGUGAAAGAGAGAAGUGAACCAGAGAAACACACGUUGUGGUAUAUUACCUGGUA

Variants of: B1
Assay: self-cleavage, relative activity (ratio to wild type); higher = more cleavage; co-transcriptional

| Variant | self-cleavage |
| --- | --- |
| A26C A64G | 0.539 |
| U5G U53C | 0.0534 |
| G51A U53A | 0.869 |
| C37G U70G | 0.405 |
| C18A G32U | 0.135 |
| G19C A39U | 0.441 |
| G27U U67A | 0.177 |
| C46G A64C | 0.152 |
| C12A A43U | 0.131 |
| C12G U55A | 0.25 |
| C12U G57U | 0.262 |
| A22G A39U | 0.42 |
| C4G G69U | 0.118 |
| A64U C65A | 0.187 |
| U33C U55G | 0.418 |
| C3U G15A | 0.416 |
| G17A A44C | 0.119 |
| G21C A31U | 0.0322 |
| G29A G57A | 0.141 |
| G34C G57U | 0.96 |
| A45C G68U | 0.166 |
| C6U A71G | 0.82 |
| C6U A30U | 0.152 |
| C48U U55G | 0.223 |

| Variant | self-cleavage |
| --- | --- |
| A47U G56A | 0.187 |
| G57A U67G | 0.191 |
| C10A G69C | 0.241 |
| U14C U60A | 0.795 |
| G17U A24U | 0.865 |
| U9C C65U | 0.258 |
| G13C C37A | 0.204 |
| C37A G54C | 0.114 |
| U2A U52A | 0.285 |
| U20A U63A | 0.261 |
| U2C G51C | 0.506 |
| U52A U55G | 0.372 |
| A11U C18A | 0.826 |
| U14A C38U | 0.478 |
| C16G G29C | 0.141 |
| C3A U14G | 0.623 |
| U58G A61C | 0.32 |
| A47C C66U | 0.155 |
| A31G A41U | 1.37 |
| U20A U70A | 0.784 |
| U58A U67G | 0.135 |
| G13A C66G | 0.16 |
| A11G | 0.883 |
| G27A U62A | 0.155 |

| Variant | self-cleavage |
| --- | --- |
| C10G A30C | 0.168 |
| G21A G34C | 1.11 |
| U5A G68A | 0.146 |
| G19C A44C | 0.152 |
| A49U C50G | 0.193 |
| U14A U70G | 0.714 |
| G54C A71C | 0.961 |
| A64G U70C | 0.61 |
| A43C G51A | 0.0814 |
| A45C U62G | 0.0741 |
| C12A G21A | 0.767 |
| A41C C65A | 0.782 |
| U2C U62A | 0.0408 |
| A23G A47C | 0.3 |
| A22U U55A | 0.255 |
| C12A G40C | 0.15 |
| G17A G68U | 0.243 |
| G19C G69A | 0.403 |
| U2A U8G | 0.201 |
| C3A A35G | 0.897 |
| A44C G51C | 0.289 |
| C50A U63G | 0.2 |
| U14C A35U | 0.713 |
| A23C U60A | 0.744 |

| Variant | self-cleavage |
| --- | --- |
| A22C C50G | 0.126 |
| A64C G69U | 0.234 |
| U20A A59G | 0.182 |
| U20A G51U | 0.833 |
| A41G C50U | 0.385 |
| C18G C65A | 0.871 |
| G32A C66A | 0.147 |
| U8C A47C | 0.131 |
| A24C C46A | 0.134 |
| A28C C65G | 0.229 |
| A23C U58A | 0.49 |
| G15A G25U | 0.573 |
| C16A G19C | 0.736 |
| C16G A23C | 0.763 |
| G17U A23C | 0.898 |
| G34U A44U | 0.205 |
| U33C A35G | 0.192 |
| U33C A35C | 0.12 |
| C38A A64C | 0.103 |
| A39C C46A | 0.191 |
| C10A A24G | 0.57 |
| A22G G34U | 1.22 |
| A49C G57U | 0.0763 |
| A26C A31U | 0.097 |

| Variant | self-cleavage |
| --- | --- |
| C16G U62G | 0.181 |
| C4A U58G | 0.183 |
| C18U G25A | 0.703 |
| U55G G68C | 0.251 |
| A11C U33G | 0.0703 |
| C6G U7C | 0.299 |
| C18A C65G | 0.091 |
| G19U A35G | 1.06 |
| U7A A47U | 0.0924 |
| U8C G29C | 0.0996 |
| A35G G56A | 0.108 |
| A61U G69U | 0.152 |
| A61U G69C | 0.283 |
| C46A G56C | 0.122 |
| A39U G42A | 0.18 |
| U5A G25U | 0.279 |
| U9G A23C | 0.589 |
| C48U U63G | 0.163 |
| U8G C48G | 0.138 |
| A11C U58G | 0.696 |
| U62G U70G | 0.352 |
| A49U A61U | 0.108 |
| G29A U70C | 0.171 |
| U8A A59U | 0.165 |

| Variant | self-cleavage |
| --- | --- |
| G15U A45U | 0.221 |
| C12A A35C | 0.978 |
| U53C A64G | 0.616 |
| C6U G40C | 0.14 |
| U7G A43C | 0.138 |
| G1A A47U | 0.257 |
| C4U U14A | 0.376 |
| C48A A59C | 0.139 |
| A11U C37G | 0.369 |
| U7G U20A | 0.294 |
| U33C C48A | 0.0642 |
| A47G G68C | 0.143 |
| U5C A64G | 0.587 |
| U5C A64C | 0.19 |
| A35C A59C | 0.258 |
| C38A A44U | 0.118 |
| G27A A39C | 0.2 |
| A28G G68A | 0.349 |
| G34A A59G | 0.2 |
| A59G G69A | 0.125 |
| G1C G57C | 0.118 |
| U14C A47C | 0.484 |
| G29A A43C | 0.215 |
| C12U G13A | 0.72 |

| Variant | self-cleavage |
| --- | --- |
| G34U A39U | 1.14 |
| A31G U53C | 0.846 |
| A26U C38G | 0.109 |
| A11C A24U | 0.615 |
| G32A A47U | 0.125 |
| G1U A22C | 0.146 |
| G19A C66A | 0.314 |
| G17C A28C | 0.347 |
| G34U G54C | 1.15 |
| A30G U33C | 0.0632 |
| A35U C37A | 0.406 |
| C12G G21U | 0.663 |
| C3A C12U | 0.59 |
| G34C G56A | 0.737 |
| U8G A11G | 0.704 |
| U9G A49C | 0.182 |
| G19U A71U | 0.738 |
| G27A C48U | 0.183 |
| G27A C48A | 0.178 |
| A44U G57U | 0.206 |
| C65A A71G | 0.93 |
| U53G U60G | 0.704 |
| G25A G27A | 0.148 |
